Legend:
α-Syn:nYFP = α-Syn:nYFP (UniProt P37840 1-140); experiment: split reporter (BiFC, NanoBiT); split-YFP; stable cell lines with α-Syn or tau fused to the N-terminal portion of YFP (bait), transfected with 250 ng prey plasmid with the C-terminal portion of YFP; fluorescence by flow cytometry at 48 hr and microscopy up to 72 hr; settings: partners not purified
tau:nYFP = molecular target: T1, tau:nYFP (UniProt P10636-8 1-441); experiment: as above; settings: partners not purified
T1 construct: microtubule associated protein tau; Plasmids and their construction are in Supplementary file 2; also called nYFP-tau; tau fused to an N-terminal moiety of YFP
T1 sequence (P10636 other isoform, or with tags, fused parts or gaps): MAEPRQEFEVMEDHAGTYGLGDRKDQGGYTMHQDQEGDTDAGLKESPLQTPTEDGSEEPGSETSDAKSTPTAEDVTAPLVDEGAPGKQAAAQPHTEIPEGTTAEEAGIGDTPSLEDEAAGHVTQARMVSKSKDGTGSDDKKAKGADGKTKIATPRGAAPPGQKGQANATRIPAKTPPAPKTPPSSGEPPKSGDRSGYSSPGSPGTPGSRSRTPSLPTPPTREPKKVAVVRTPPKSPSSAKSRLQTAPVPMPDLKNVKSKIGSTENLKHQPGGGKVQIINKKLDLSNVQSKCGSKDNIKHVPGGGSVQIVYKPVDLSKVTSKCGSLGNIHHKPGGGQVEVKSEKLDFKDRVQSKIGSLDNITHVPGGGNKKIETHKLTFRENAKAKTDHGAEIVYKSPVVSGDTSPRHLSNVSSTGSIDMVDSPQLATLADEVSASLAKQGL

B1: TRIM28:cYFP (natural protein, human, UniProt Q13263 1-835, looked up)
chain: MAASAAAASAAAASAASGSPGPGEGSAGGEKRSTAPSAAASASASAAASSPAGGGAEALELLEHCGVCRERLRPEREPRLLPCLHSACSACLGPAAPAAANSSGDGGAAGDGTVVDCPVCKQQCFSKDIVENYFMRDSGSKAATDAQDANQCCTSCEDNAPATSYCVECSEPLCETCVEAHQRVKYTKDHTVRSTGPAKSRDGERTVYCNVHKHEPLVLFCESCDTLTCRDCQLNAHKDHQYQFLEDAVRNQRKLLASLVKRLGDKHATLQKSTKEVRSSIRQVSDVQKRVQVDVKMAILQIMKELNKRGRVLVNDAQKVTEGQQERLERQHWTMTKIQKHQEHILRFASWALESDNNTALLLSKKLIYFQLHRALKMIVDPVEPHGEMKFQWDLNAWTKSAEAFGKIVAERPGTNSTGPAPMAPPRAPGPLSKQGSGSSQPMEVQEGYGFGSGDDPYSSAEPHVSGVKRSRSGEGEVSGLMRKVPRVSLERLDLDLTADSQPPVFKVFPGSTTEDYNLIVIERGAAAAATGQPGTAPAGTPGAPPLAGMAIVKEEETEAAIGAPPTATEGPETKPVLMALAEGPGAEGPRLASPSGSTSSGLEVVAPEGTSAPGGGPGTLDDSATICRVCQKPGDLVMCNQCEFCFHLDCHLPALQDVPGEEWSCSLCHVLPDLKEEDGSLSLDGADSTGVVAKLSPANQRKCERVLLALFCHEPCRPLHQLATDSTFSLDQPGGTLDLTLIRARLQEKLSPPYSSPQEFAQDVGRMFKQFNKLTEDKADVQSIIGLQRFFETRMNEAFGDTKFSAVLVEPPPMSLPGAGLSSQELSGGPGDGP
notes: Tripartite motif-containing 28 (TRIM28); Plasmids and their construction are in Supplementary file 2; also called TRIM28 fused to a C-terminal moiety of YFP; Prey
With B1 the “fold lower BiFC signal than with tau as prey” value (α-Syn:nYFP) was about 8 fold and the “fold lower BiFC signal than with tau as prey” value (tau:nYFP) was about 8 fold.

Source: publication PMC5104516, “TRIM28 regulates the nuclear accumulation and toxicity of both alpha-synuclein and tau” (eLife, 2016)
